This is an account of results in patent publication US7070972 (US Dept. of Health and Human Services, dated 2006).

Test [1] has as its target T1, JAK-1 (UniProt P23458 1-1154, limits assumed).
T1 construct: whole, on cells; Tested in cell lysates
The test is described as follows: anti-Tac immunoprecipitation, JAK-1 Western blot, COS-7 cotransfectants. Background: In western blotting, separated proteins are transferred to a membrane and probed.

In test [2] the target is T2, common γ chain of the IL-2 receptor, wild type (UniProt P31785 23-369, limits assumed).
T2 construct: whole, on cells; Tested in cell lysates; also called wild type γc
T2 sequence (looked up): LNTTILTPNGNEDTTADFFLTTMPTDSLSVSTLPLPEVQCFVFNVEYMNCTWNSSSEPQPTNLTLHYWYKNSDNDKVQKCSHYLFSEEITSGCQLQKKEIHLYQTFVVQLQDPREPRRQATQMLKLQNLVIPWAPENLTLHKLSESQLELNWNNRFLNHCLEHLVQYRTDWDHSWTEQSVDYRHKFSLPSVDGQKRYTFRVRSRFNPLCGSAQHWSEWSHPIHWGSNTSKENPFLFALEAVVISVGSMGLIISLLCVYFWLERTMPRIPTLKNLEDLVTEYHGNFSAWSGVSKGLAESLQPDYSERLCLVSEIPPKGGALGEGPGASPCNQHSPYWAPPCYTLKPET
The test is described as follows: co-immunoprecipitation from YT cell lysates with R878, JAK-3 Western blot.

T1 sequence (P23458 whole entry): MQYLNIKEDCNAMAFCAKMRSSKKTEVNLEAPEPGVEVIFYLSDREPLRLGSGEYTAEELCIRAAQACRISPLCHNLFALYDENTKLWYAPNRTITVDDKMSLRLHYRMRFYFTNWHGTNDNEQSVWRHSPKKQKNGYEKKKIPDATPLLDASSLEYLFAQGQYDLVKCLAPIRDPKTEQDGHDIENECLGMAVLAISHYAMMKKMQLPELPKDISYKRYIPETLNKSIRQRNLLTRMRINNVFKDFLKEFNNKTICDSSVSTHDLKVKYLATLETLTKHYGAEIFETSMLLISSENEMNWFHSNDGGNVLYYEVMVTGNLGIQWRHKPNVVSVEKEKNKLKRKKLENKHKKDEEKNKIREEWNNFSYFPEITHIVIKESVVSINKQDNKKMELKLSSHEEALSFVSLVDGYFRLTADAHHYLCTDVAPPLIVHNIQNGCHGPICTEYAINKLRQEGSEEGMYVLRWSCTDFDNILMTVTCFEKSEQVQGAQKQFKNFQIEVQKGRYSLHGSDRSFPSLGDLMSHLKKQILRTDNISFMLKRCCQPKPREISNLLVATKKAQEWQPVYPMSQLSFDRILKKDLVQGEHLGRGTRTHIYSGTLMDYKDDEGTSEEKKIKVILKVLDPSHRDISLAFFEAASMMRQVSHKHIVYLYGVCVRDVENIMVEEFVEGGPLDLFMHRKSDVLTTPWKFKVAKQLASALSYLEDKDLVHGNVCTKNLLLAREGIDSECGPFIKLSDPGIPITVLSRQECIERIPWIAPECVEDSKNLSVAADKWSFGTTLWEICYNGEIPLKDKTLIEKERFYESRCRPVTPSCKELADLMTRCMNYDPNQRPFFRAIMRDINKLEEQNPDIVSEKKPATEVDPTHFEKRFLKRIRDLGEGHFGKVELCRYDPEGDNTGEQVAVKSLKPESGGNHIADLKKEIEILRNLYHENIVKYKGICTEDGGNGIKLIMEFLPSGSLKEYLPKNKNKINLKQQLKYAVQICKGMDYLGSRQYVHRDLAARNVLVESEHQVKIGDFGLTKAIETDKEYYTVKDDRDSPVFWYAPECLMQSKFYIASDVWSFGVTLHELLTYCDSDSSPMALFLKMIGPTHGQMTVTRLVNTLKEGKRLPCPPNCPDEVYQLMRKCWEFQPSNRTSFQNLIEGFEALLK

B1: chimeric α/γ/γ receptor chain (receptor, UniProt P01589 22-240, looked up)
chain: ELCDDDPPEIPHATFKAMAYKEGTMLNCECKRGFRRIKSGSLYMLCTGNSSHSSWDNQCQCTSSATRNTTKQVTPQPEEQKERKTTEMQSPMQPVDQASLPGHCREPPPWENEATERIYHFVVGQMVYYQCVQGYRALHRGPAESVCKMTHGKTRWTQPQLICTGEMETSQFPGEEKPQASPEGRPESETSCLVTTTDFQIQTEMAATMETSIFTTEYQVVISVGSMGLIISLLCVYFWLERTMPRIPTLKNLEDLVTEYHGNFSAWSGVSKGLAESLQPDYSERLCLVSEIPPKGGALGEGPGASPCNQHSPYWAPPCYTLKPET
As for B1, the binding result in test [1] is reported as “no binding”.

B2: JAK-3 protein (enzyme)
chain: MAPPSEETPLIPQRSCSLLSTEAGALHVLLPARAPGPPQRLSFSFGDHLAEDLCVQAAKASGILPVYHSLFALATEDLSCWFPPSHIFSVEDASTQVLLYRIRFYFPNWFGLEKCHRFGLRKDLASAILDLPVLEHLFAQHRSDLVSGRLPVGLSLKEQGECLSLAVLDLARMAREQAQRPGELLKTVSYKACLPPSLRDLIQGLSFVTRRAIRRTVRRALPRVAACQADRHSLMAKYIMDLERLDPAGAAETFHVGLPGALGGHDGLGLLRVAGDGGIAWTQGEQEVLQPFCDFPEIVDISIKQAPRVGPAGEHRLVTVTRTDNQILEAEFPGLPEALSFVALVDGYFRLTTDSQHFFCKEVAPPRLLEEVAEQCHGPITLDFAINKLKTGGSRPGSYVLRRSPQDFDSFLLTVCVQNPLGPDYKGCLIRRSPTGTFLLVGLSRPHSSLRELLATCWDGGLHVDGVAVTLTSCCIPRPKEKSNLIVVQRGHSPPTSSLVQPQSQYQLSQMTFHKIPADSLEWHENLGHGSFTKIYRGCRHEVVDGEARKTEVLLKVMDAKHKNCMESFLEAASLMSQVSYRHLVLLHGVCMAGDSTMVQEFVHLGAIDMYLRKRGHLVPASWKLQVVKQLAYALNYLEDKGLPHGNVSARKVLLAREGADGSPPFIKLSDPGVSPAVLSLEMLTDRIPWVAPECLREAQTLSLEADKWGFGATVWEVFSGVTMPISALDPAKKLQFYEDRQQLPAPKWTELALLIQQCMAYEPVQRPSFRAVIRDLNSLISSDYELLSDPTPGALAPRDGLWNGAQLYACQDPTIFEERHLKYISQLGKGNFGSVELCRYDPLAHNTGALVAVKQLQHSGPDQQRDFQREIQILKALHSDFIVKYRGVSYGPGRPELRLVMEYLPSGCLRDFLQRHRARLDASRLLLYSSQICKGMEYLGSRRCVHRDLAARNILVESEAHVKIADFGLAKLLPLDKDYYVVREPGQSPIFWYAPESLSDNIFSRQSDVWSFGVVLYELFTYCDKSCSPSAEFLRMMGCERDVPALCRLLELLEEGQRLPAPPACPAEVHELMKLCWAPSPQDRPSFSALGPQLDMLWSGSRGCETHAFTAHPEGKHHSLSFS
notes: Intracellular kinase of 1124 residues; Tested as the endogenous protein in lysates of HUT-78, YT, NK and NK3.3 cells, or as recombinant protein in lysates of transfected COS-7 cells; also called L-JAK; human JAK-3
As to B2, in test [2], the binding result is listed as “binds”.
